Laboratory results reported in PMC8010718, “Direct coupling of oligomerization and oligomerization-driven endocytosis of the dopamine transporter to its conformational mechanics and activity” (The Journal of Biological Chemistry, 2021).

B1: endogenous HA-DAT of HA-DAT knock-in mice (natural protein, mouse, UniProt Q61327 1-619, looked up)
chain: MSKSKCSVGPMSSVVAPAKEPNAVGPREVELILVKEQNGVQLTNSTLINPPQTPVEVQERETWSKKIDFLLSVIGFAVDLANVWRFPYLCYKNGGGAFLVPYLLFMVIAGMPLFYMELALGQFNREGAAGVWKICPVLKGVGFTVILISFYVGFFYNVIIAWALHYFFSSFTMDLPWIHCNNTWNSPNCSDAHSSNSSDGLGLNDTFGTTPAAEYFERGVLHLHQSRGIDDLGPPRWQLTACLVLVIVLLYFSLWKGVKTSGKVVWITATMPYVVLTALLLRGVTLPGAMDGIRAYLSVDFYRLCEASVWIDAATQVCFSLGVGFGVLIAFSSYNKFTNNCYRDAIITTSINSLTSFSSGFVVFSFLGYMAQKHNVPIRDVATDGPGLIFIIYPEAIATLPLSSAWAAVFFLMLLTLGIDSAMGGMESVITGLVDEFQLLHRHRELFTLGIVLATFLLSLFCVTNGGIYVFTLLDHFAAGTSILFGVLIEAIGVAWFYGVQQFSDDIKQMTGQRPNLYWRLCWKLVSPCFLLYVVVVSIVTFRPPHYGAYIFPDWANALGWIIATSSMAMVPIYATYKFCSLPGSFREKLAYAITPEKDRQLVDRGEVRQFTLRHWLLV
notes: also called endogenous mouse HA-DAT; source: endogenous, striatal synaptosomes from HA-DAT knock-in mice, in lysate
B2: YFP- and HA-epitope tagged dopamine transporter (YFP-HA-DAT), wild type (natural protein, human, UniProt Q01959 1-620, looked up)
chain: MSKSKCSVGLMSSVVAPAKEPNAVGPKEVELILVKEQNGVQLTSSTLTNPRQSPVEAQDRETWGKKIDFLLSVIGFAVDLANVWRFPYLCYKNGGGAFLVPYLLFMVIAGMPLFYMELALGQFNREGAAGVWKICPILKGVGFTVILISLYVGFFYNVIIAWALHYLFSSFTTELPWIHCNNSWNSPNCSDAHPGDSSGDSSGLNDTFGTTPAAEYFERGVLHLHQSHGIDDLGPPRWQLTACLVLVIVLLYFSLWKGVKTSGKVVWITATMPYVVLTALLLRGVTLPGAIDGIRAYLSVDFYRLCEASVWIDAATQVCFSLGVGFGVLIAFSSYNKFTNNCYRDAIVTTSINSLTSFSSGFVVFSFLGYMAQKHSVPIGDVAKDGPGLIFIIYPEAIATLPLSSAWAVVFFIMLLTLGIDSAMGGMESVITGLIDEFQLLHRHRELFTLFIVLATFLLSLFCVTNGGIYVFTLLDHFAAGTSILFGVLIEAIGVAWFYGVGQFSDDIQQMTGQRPSLYWRLCWKLVSPCFLLFVVVVSIVTFRPPHYGAYIFPDWANALGWVIATSSMAMVPIYAAYKFCSLPGSFREKLAYAIAPEKDRELVDRGEVRQFTLRHWLKV
notes: dopamine transporter (DAT), human; also called WT YFP-HA-DAT; wtDAT; source: PAE cells, stably expressing, in intact cells and in lysate

Tests used:
[1] = target: the molecule itself; assay: SDS-resistant oligomers on SDS-PAGE and Western blot; striatal synaptosomes of HA-DAT knock-in mice with vehicle, AIM-100 or ALs (20-40 μM, 2 h, 37 °C) in KRHG or KRHG/F12 (1:1); lysates in Laemmli buffer 30 min 42 °C; DAT antibody
[2] = target: the molecule itself; assay: SDS-resistant oligomers on SDS-PAGE and Western blot; PAE cells stably expressing the tagged transporter, incubated with vehicle (DMSO), AIM-100 or ALs (20 μM, 2 h, 37 °C), with or without cocaine; lysis in TGH with 1% deoxycholate; Laemmli buffer 5 min 95 °C; 7.5% SDS-PAGE; GFP antibody

Protein | stoichiometry N [1] | stoichiometry N [2]
B1 | 3 | –
B2 | – | 3
